For one test, the system named is Ad3-GFP virus. Kind of test: Competition of Ad3-GFP virus infection on HeLa cells. In kind it is cell-based, adenovirus serotype 3. Conditions: pre-incubation with knob; GFP expression. The method, then: FIG. 3A-3D. Competition of Ad3 virus by dimerized Ad3 knob mutants. FIG. 3A) Relative attachment of ^3H-labeled Ad3 virus in the presence of dimeric fiber knob mutants. 1.8×10^5 HeLa cells were incubated with Ad3 knob mutants at a concentration of 2.5 and 100 μg/ml on ice for 1 hour. Then 400 pfu/cell of ^3H-Ad3 virus was added on ice for another hour. Unbound virus particles were washed away. Attachment of virus particles incubated with PBS was taken as 100%. N=3. FIG. 3B1-3B2) Competition of Ad3-GFP virus infection on HeLa cells. 1.5×10^5 HeLa cells were seeded into 24 well plates. Cells were incubated with the Ad3 knob mutants at increasing concentrations for one hour at room temperature. 100 pfu/cell of Ad3-GFP virus were then added and GFP expression was analyzed 18 hours later by flow cytometry. FIG. 3B1) percentage of GFP positive cells. FIG. 3B2) mean fluorescence intensity. N=3. The standard deviation was less than 10%. FIG. 3C) Relative attachment of ^3H-labeled Ad3 virus in the presence of dimeric fiber knob mutants with multiple mutations. The study was performed as described in […]) The standard deviation was less than 10%. FIG. 3D) Competition of Ad3-GFP virus infection on HeLa cells. The study was performed as described in FIG. 3C) The standard deviation was less than 10%.
FIG. 9A1-9C. Analysis of dimeric Ad3 fiber knob mutants with increased affinity to DSG2. FIG. 9A1-9A2) Competition of Ad3-GFP virus infection on HeLa cells with dimeric affinity-enhanced mutant Y250F and JO-1 (dimeric wt Ad3 fiber knob). The experimental setting is as described for FIG. 3C. FIG. 9A1) percentage of GFP positive cells. FIG. 9A2) mean fluorescence intensity. N=3. The standard deviation was less than 10%. […] 100 pfu/cell of Ad3GFP virus were then added and GFP expression was analyzed 18 hours later. […]
Functional validation. […] Transduction was measured based on GFP expression (FIG. 3B). […] Dimeric Ad3 knob mutants with combined mutations were also analyzed for their ability to compete with Ad3 virus for attachment (FIG. 3C) and infection (FIG. 3D).

The test system of a further test is A549 xenograft tumors. Kind of test: Enhancement of irinotecan therapy in A549 xenograft tumors. The note with it: 2 mg/kg i.v. one hour before irinotecan 37.5 mg/kg i.v.; tumor volume. It is filed as in vivo, CB17-SCID/beige mice. How it is done: FIG. 5A-5B. Correlation of reduced DSG2 binding with the ability to open epithelial junctions. FIG. 5A) Transepithelial electrical resistance (TEER) measured on polarized colon cancer T84 cells. Cells were cultured in transwell chambers until the TEER was constant, i.e. tight junctions had formed. A total of 5 μg of dimeric Ad3 fiber knobs in PBS was then added for 1 hour to the apical chamber. TEER was measured at the indicated time points. N=6. For time points 1.5 and 4 hours the difference between JO-1 vs D261N and N186D was significant (p<0.01). The arrows indicate the addition and removal of Ad3 fiber knobs. FIG. 5B) Enhancement of irinotecan therapy. A total of 4×10^6 A549 cells were injected subcutaneously into CB17-SCID/beige mice. Once the tumor reached a volume of ˜100 mm^3 (day 15 after implantation), the mice were injected intravenously with 2 mg/kg JO-1, E299V, N186D, or PBS, followed by an intravenous injection of irinotecan (37.5 mg/kg) one hour later. The treatment was repeated on day 25. N=5. […] The difference between “irinotecan” vs “JO-1+irinotecan” was significant (p<0.01) from day 20 on.
(§1) FIG. 10A-10C. Combination of affinity-enhanced JO-1 versions with chemotherapy. FIG. 10A) Enhancement of irinotecan (I) therapy. The experimental setting was the same as in FIG. 5B. […] N=5. […] Mammary fat pad tumors were established from primary ovarian cancer ovc316 cells. Treatment was started when tumors reached a volume of 100 mm^3. Mice were injected intravenously with 2 mg/kg JO-1 or with 0.5 mg/kg JO-4, followed by an intravenous injection of PEGylated liposomal doxorubicin (PLD) (1 mg/kg) one hour later. Treatment was repeated weekly. […] A total of 4×10^6 TNBC MDA-MB-231 cells were injected into the mammary fat pad of CB17 SCID-beige mice. JO-4 (2 mg/kg) was intravenously injected 1 hour before the application of cetuximab (C) (10 mg/kg, i.p.) and nab-paclitaxel (nab-P) (5 mg/kg, i.v.). Treatment was given weekly. N=10 P<0.01 at day 25 for nab-P+C vs JO-4+nab-P+C.
A549, MDA-MB-231, and ovc316 xenograft tumors were established by injection of the corresponding tumor cells into the mammary fat pad (1:1 with Matrigel) of CB17 mice. TC1-DSG2 tumors were established by subcutaneous injection of TC1-DSG2 cells into DSG2 transgenic mice. JO-0, JO-1, JO-2, or JO-4 were intravenously injected one hour before the application of chemotherapeutic drugs: Irinotecan/Camptosar™ (Pfizer Inc., Groton, CT), PEGylated liposomal doxorubicin/Lipodox™ (Sun Pharmaceuticals IN, India), cetuximab/Erbitux™ (ImClone, Somerville, NJ), nanoparticle albumin conjugated paclitaxel/Abraxane” (Abraxis Biosciences, Summit, NJ). Tumor volumes were measured three times a week. Each treatment group consisted of a minimum of 5 mice.

A further test has as its system TNBC MDA-MB-231 tumors. Kind of test: Enhancement of nab-paclitaxel/cetuximab therapy in orthotopic TNBC MDA-MB-231 tumors. Conditions: 2 mg/kg i.v. 1 hour before cetuximab 10 mg/kg i.p. and nab-paclitaxel 5 mg/kg i.v., weekly. In kind it is in vivo, CB17 SCID-beige mice. The method, then:
as §1
A549, MDA-MB-231, and ovc316 xenograft tumors were established by injection of the corresponding tumor cells into the mammary fat pad (1:1 with Matrigel) of CB17 mice. TC1-DSG2 tumors were established by subcutaneous injection of TC1-DSG2 cells into DSG2 transgenic mice. […] Tumor volumes were measured three times a week. […]

“Also recorded” adds a separate entry of the source.

B1: D261N (protein)
chain: MKVSALKEKVSALKEKVSALKEKVSALKEKVSALKEGSGGGSGGGSGGGSNSIALKNNTLWTGPKPEANCIIEYGKQNPDSKLTLILVKNGGIVNGYVTLMGASDYVNTLFKNKNVSINVELYFDATGHILPDSSSLKTDLELKYKQTADFSARGFMPSTTAYPFVLPNAGTHNENYIFGQCYYKASNGALFPLEVTVMLNKRLPDSRTSYVMTFLWSLNAGLAPETTQATLITSPFTFSYIREDD
As for B1, the “Inhibition of Ad3-GFP infection of HeLa cells, in words” value in the test with Ad3-GFP virus is reported as “least reduced”.

B2: JO-1: dimeric protein that contains the wild-type Ad3 fiber knob and a self-dimerization domain (SEQ ID NO:27) (protein, listed as Homo sapiens)
chain: MKVSALKEKVSALKEKVSALKEKVSALKEKVSALKEGSGGGSGGGSGGGSNSIALKNNTLWTGPKPEANCIIEYGKQNPDSKLTLILVKNGGIVNGYVTLMGASDYVNTLFKNKNVSINVELYFDATGHILPDSSSLKTDLELKYKQTADFSARGFMPSTTAYPFVLPNAGTHNENYIFGQCYYKASDGALFPLEVTVMLNKRLPDSRTSYVMTFLWSLNAGLAPETTQATLITSPFTFSYIREDD
modifications: dimer
Turning to B2, the “Enhancement of irinotecan therapy” value in the test on A549 xenograft tumors is listed as “enhanced irinotecan therapy; also recorded: significant”.

B3: JO-4 (protein)
chain: MKVSALKEKVSALKEKVSALKEKVSALKEKVSALKEGSGGGSGGGSGGGSNSIALKNNTLWTGPKPEANCIIEYGKQNPDSKLTLILVKNGGIVNGYVTLMGASDYVNTLFKNKNVSINVELYFDATGHILPDSSSLKTDLELKYKQTADFSARGFMPSTTAYPFVLPNAGTHNENFIFGQCYYKASDGALFPLEVTVMLNKRLPDSRTSYVMTFLWSLNAGLAPETTQATLITSPFTFSYIREDD
Turning to B3, the “Enhancement of irinotecan therapy” value in the test with A549 xenograft tumors is reported as “significantly more than JO-1; also recorded: significantly more efficient than JO-2”. Moreover, the “Enhancement of nab-paclitaxel/cetuximab therapy” value in the test on TNBC MDA-MB-231 tumors is reported as “significantly increased; also recorded: enhances therapy”.
